FireProtDB (doi:10.1002/prot.340090203)

Conditions: Escherichia coli (strain K12), reversible: yes, whole UniProt chain shown; for unfolding free energy: pH 7, 25 °C, GdnHCl, CD, Potassium phosphate 10 mM
[1] = pH 9, Thermal, DSC, Sodium tetraborate 1 mM

B1: Tryptophan synthase alpha chain wild type, P0A877 (protein)
chain: MERYESLFAQLKERKEGAFVPFVTLGDPGIEQSLKIIDTLIEAGADALELGIPFSDPLADGPTIQNATLRAFAAGVTPAQCFEMLALIRQKHPTIPIGLLMYANLVFNKGIDEFYAQCEKVGVDSVLVADVPVEESAPFRQAALRHNVAPIFICPPNADDDLLRQIASYGRGYTYLLSRAGVTGAENRAALPLNHLVAKLKEYNAAPPLQGFGISAPDQVKAAIDAGAAGAISGSAIVKIIEQHINEPEKMLAALKVFVQPMKAATRS
unfolding free energy: 8.8 kcal/mol | unfolding free energy (transition: 3): 4.6 kcal/mol | Tm [1]: 54.1 °C | heat capacity change of unfolding [1]: 4.6 kcal/mol/K | unfolding enthalpy (calorimetric) [1]: 120 kcal/mol
